± gives the half width of the 95% confidence interval.

The source of these data is the supplement of paper PMC12764529.

Series [1] can be described thus: folding stability dG unfold (combined trypsin and chymotrypsin); higher = more stable. In a few lines: (§1)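 Designed mini-proteins (under 80 residues, no cysteine) in a PA-tagged cDNA display construct were digested with trypsin and chymotrypsin. Each protease was used at 11 concentrations (threefold dilutions) plus a no-protease condition, followed by sequencing. K50 was inferred by Bayesian fitting of sequencing counts, and unfolding free energy was derived against a sequence-predicted unfolded-state K50 and a shared folded-state K50, per protease or combined. Only designs with AlphaFold2 dimer inter-PAE above 15 were kept.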

Series [2] in a line: folding stability dG unfold from chymotrypsin proteolysis; higher = more stable. The procedure, abridged: as §1
Series [3] in a line: folding stability dG unfold from trypsin proteolysis; higher = more stable. The procedure, abridged:
as §1

As for “SAGGSAGGSAGTLKLTLEVTVTRLYRLPDGSGSLVAETVRVRVEVELEVDELDEDGRLLLSAGGSAGGSAGG [r11_558_TrROS_Hall]”, the “folding stability dG unfold” value in series [1] is 3.18 ± 0.07 kcal/mol; in series [2], 3.269 ± 0.024 kcal/mol; in series [3] it was 3.08 ± 0.14 kcal/mol.
Take “SAGGSAGGSAGTVEEIAKYFAGEFPNYKVNIDVEWEGGKITSVDIEWEVVPPPPPESPGKSAGGSAGGSAGG [r11_197_TrROS]”: the “folding stability dG unfold” value came out at 0.834 ± 0.22 kcal/mol in series [1], 0.309 ± 0.18 kcal/mol in series [2] and 1.16 ± 0.12 kcal/mol in series [3].
In the same order, the values of “SAGGSAGGSAGTVIRVRDKNGKIVEISLEEAAELLGIPPSELTLEDIVKAFAEKVDSIEILSSAGGSAGGSA [r18_403_TrMRF]” are 2.91 ± 0.064 kcal/mol, 2.3 ± 0.038 kcal/mol and 3.6 ± 0.1 kcal/mol.
Regarding “SAGGSAGGSAGVITIPLDDINDLPPGFKVKPNNNSMMIEDGDNPIHIPPGEPVQIEPPDESAGGSAGGSAGG [r17_91_TrROS]”, the entries for the “folding stability dG unfold” value in series [1], in series [2] and in series [3] were 0.466 ± 0.22 kcal/mol, 0.346 ± 0.097 kcal/mol and 0.65 ± 0.1 kcal/mol, respectively.
Consider “SAGGSAGGSAGVSFVVDALFVDPNTNEVYHGHIEFYDDGTAKITLTNQNGKTKTFTFPVLFSAGGSAGGSAG [r3_61_TrMRF]”, for which the “folding stability dG unfold” value in series [1] was determined as 3.01 ± 0.19 kcal/mol; in series [2], 3.25 ± 0.049 kcal/mol; in series [3], 2.73 ± 0.14 kcal/mol.
“SAGGSAGGSAGVVDEVKAALEPQGLKVLSVTPGSSSVTVTVLDPKKGETTTFTIPLDDPLSAGGSAGGSAGG [r11_428_JUSTAS]”: the “folding stability dG unfold” value in series [1] came to 1.22 ± 0.057 kcal/mol; in series [2], 1.28 ± 0.088 kcal/mol; in series [3] it was 1.02 ± 0.029 kcal/mol.
Consider “SAGGSAGGSAGVVEPTVVSRAPDGTLTVVLNLPDGSTRTVTDPTNVTIGDRPINALTNASSAGGSAGGSAGG [r11_1017_JUSTAS]”, for which the “folding stability dG unfold” value in series [1] is 0.222 ± 0.14 kcal/mol; in series [2], 0.508 ± 0.042 kcal/mol; in series [3] it was -0.956 ± 0.45 kcal/mol.
In the same order, the values of “SAGGSAGGSAGVVLTEDGYAVATVTVTTTTVEYDEETGEWKETTTTTTETLTVVVPVGATSAGGSAGGSAGG [r17_527_TrROS_Hall]” are 2.22 ± 0.098 kcal/mol, 1.6 ± 0.14 kcal/mol and 2.66 ± 0.2 kcal/mol.
With “SAGGSAGGSAGVVRTDDGREVTVRRTVRVEVRLEITITASEEDREKAAAALERLLRELGLSAGGSAGGSAGG [r17_501_TrROS_Hall]”, the “folding stability dG unfold” value in series [1] was found to be 2.86 ± 0.16 kcal/mol; in series [2], 3.04 ± 0.086 kcal/mol; in series [3] it was 2.68 ± 0.24 kcal/mol.
Take “SAGGSAGGSAGWFFVMDIKYEYRQTPDGKTEQEMSIEMKPIPPIPAEDLKEKLGLPPEDIASAGGSAGGSAG [r3_338_TrROS]”: the “folding stability dG unfold” value was 1.94 ± 0.17 kcal/mol in series [1], 2.62 ± 0.11 kcal/mol in series [2] and 0.937 ± 0.067 kcal/mol in series [3].
The like results for “SAGGSAGGSAGWFTIMFKADSPEKVEEIVDELAQENGLEVEIERNPGEPGYIMITIKPPPSAGGSAGGSAGG [r11_797_TrROS]” were, in that order, 1.27 ± 0.12 kcal/mol, 0.974 ± 0.21 kcal/mol and 1.47 ± 0.054 kcal/mol.
In the same order, the values of “SAGGSAGGSAGWLMIMFPIPPNADNVRIKWPDGPTQEHEMEPGSPVMIMIPPGNIKIEVDSAGGSAGGSAGG [r11_52_TrROS]” are 1.21 ± 0.1 kcal/mol, 1.24 ± 0.091 kcal/mol and 1.13 ± 0.054 kcal/mol.
For the sequence “SAGGSAGGSAGWRTHSHWVPPDNIPELAERIQDWGVKVEIERDPKDGWYRVTITIPDDFISAGGSAGGSAGG [r11_1043_TrROS]”, the “folding stability dG unfold” value in series [1] was 1.21 ± 0.14 kcal/mol; in series [2], 1.38 ± 0.15 kcal/mol; in series [3], 0.793 ± 0.058 kcal/mol.
Consider “SAGGSAGGSAGYKPGEVVYIEVEDPETGKSLKVPVKVPENMTPEQAKKLAEEAAKKYREGSAGGSAGGSAGG [r11_355_TrMRF]”, for which the “folding stability dG unfold” value in series [1] came out at 2.02 ± 0.16 kcal/mol; in series [2] it was 2.22 ± 0.095 kcal/mol; in series [3], 1.57 ± 0.082 kcal/mol.
Consider “SAGGSAGGSAGYVVIPLDIDAEPGATVEITLPNGEKIEAIVEDHPDGLRSVRVGDGVILVPGSAGGSAGGSA [r18_372_TrMRF]”, for which the “folding stability dG unfold” value in series [1] stood at 0.742 ± 0.087 kcal/mol; in series [2] it was 0.827 ± 0.05 kcal/mol; in series [3] it was 0.465 ± 0.032 kcal/mol.
For “SAGGSAGGSAHKITITLPNGNPPEIVVEFETEEEAKEKAEEIIKKLEEEGYPKENLTVTIEKESAGGSAGGS [r12_295_JUSTAS]”, the “folding stability dG unfold” value came to 1.86 ± 0.12 kcal/mol in series [1], 1.76 ± 0.087 kcal/mol in series [2] and 1.87 ± 0.076 kcal/mol in series [3].
The like results for “SAGGSAGGSAILVPSPETAKKIMDELRKKTGAKVKMKPIGTGADGKEYYRIEVVPPDKPLDSAGGSAGGSAG [r3_59_TrMRF]” were, in that order, 0.0705 ± 0.14 kcal/mol, -0.118 ± 0.14 kcal/mol and 0.029 ± 0.084 kcal/mol.
Take “SAGGSAGGSAIMINIDLEYDPGDGTIELEYKISFMDPGGKPMGMITIRLEIRIPPPEPDPDDKSAGGSAGGS [r12_254_TrROS]”: the “folding stability dG unfold” value in series [1] came out at 3.37 ± 0.46 kcal/mol; in series [2], 3.64 ± 0.39 kcal/mol; in series [3], 3.08 ± 0.31 kcal/mol.
With “SAGGSAGGSAIVILLPWGFLIEIKNIRMEMKRDPGNGEPKMDMHIPIEIIPIPPPGDPAFQESAGGSAGGSA [r18_6_TrROS]”, the “folding stability dG unfold” value in series [1] is 2.79 ± 0.14 kcal/mol; in series [2], 3.17 ± 0.039 kcal/mol; in series [3] it was 2.12 ± 0.054 kcal/mol.
For “SAGGSAGGSAKAKIKKVEVEKEGDKLRVTAEIELEDGYVLKVSFEFKDDEIKMEIEIVPLKDSAGGSAGGSA [r18_79_TrROS_Hall]”, the “folding stability dG unfold” value in series [1] is 3.22 ± 0.48 kcal/mol; in series [2], 3.38 ± 0.29 kcal/mol; in series [3] it was 3.02 ± 0.32 kcal/mol.
Consider “SAGGSAGGSAKAKVIKTEEFELPNGVRIRIEYIEVDGKLIEKVEIEIKAESEEQKKALEKASAGGSAGGSAG [r3_158_TrROS_Hall]”, for which the “folding stability dG unfold” value in series [1] worked out at 1.71 ± 0.17 kcal/mol; in series [2], 1.82 ± 0.15 kcal/mol; in series [3] it was 1.29 ± 0.052 kcal/mol.
For “SAGGSAGGSAKIRLIFKTEEEARKAIEALLPEGAKAKIKVEKRKDGKKYVVVEIEFKEEEESAGGSAGGSAG [r3_87_TrROS_Hall]”, the “folding stability dG unfold” value in series [1] worked out at 3.57 ± 0.21 kcal/mol; in series [2], 3.79 ± 0.23 kcal/mol; in series [3] it was 3.58 ± 0.24 kcal/mol.
Regarding “SAGGSAGGSAKIWIILKDADEARDRIEELFGPGVRIEPVNIQRWDGKVYVMIEIEIPPNMTSAGGSAGGSAG [r3_87_TrROS]”, the “folding stability dG unfold” value came out at 2.28 ± 0.054 kcal/mol in series [1], 2.4 ± 0.051 kcal/mol in series [2] and 2.1 ± 0.055 kcal/mol in series [3].
In the case of “SAGGSAGGSAKKKILVKKPDGRLLLIEIDKDKPNTVRIYDIDTGKKIELSVEDLKKLKIKKSAGGSAGGSAG [r3_451_TrROS_Hall]”, the “folding stability dG unfold” value in series [1] worked out at 2.08 ± 0.052 kcal/mol; in series [2], 2.35 ± 0.052 kcal/mol; in series [3], 1.57 ± 0.034 kcal/mol.
As for “SAGGSAGGSAKKPVTGTIILKYPGTPEDALAKAKEIAKELESRGYSVSAEFLPNGYIKITLPSAGGSAGGSA [r18_262_TrMRF]”, the entries for the “folding stability dG unfold” value in series [1], in series [2] and in series [3] were 1.73 ± 0.098 kcal/mol, 1.78 ± 0.051 kcal/mol and 1.48 ± 0.049 kcal/mol, respectively.
For “SAGGSAGGSAKKTLYKVKITKKNKNGEKIEIVVPKSEDEIKEEAKKKFGIDKIEIEPVELKSAGGSAGGSAG [r3_220_TrROS_Hall]”, the “folding stability dG unfold” value in series [1] is 0.182 ± 0.17 kcal/mol; in series [2] it was 0.466 ± 0.19 kcal/mol; in series [3] it was -0.305 ± 0.16 kcal/mol.
